T1: Cas-alpha 10 base variant (synthetic construct, UniProt P0DW62 SEQ:1-497)
T1 chain: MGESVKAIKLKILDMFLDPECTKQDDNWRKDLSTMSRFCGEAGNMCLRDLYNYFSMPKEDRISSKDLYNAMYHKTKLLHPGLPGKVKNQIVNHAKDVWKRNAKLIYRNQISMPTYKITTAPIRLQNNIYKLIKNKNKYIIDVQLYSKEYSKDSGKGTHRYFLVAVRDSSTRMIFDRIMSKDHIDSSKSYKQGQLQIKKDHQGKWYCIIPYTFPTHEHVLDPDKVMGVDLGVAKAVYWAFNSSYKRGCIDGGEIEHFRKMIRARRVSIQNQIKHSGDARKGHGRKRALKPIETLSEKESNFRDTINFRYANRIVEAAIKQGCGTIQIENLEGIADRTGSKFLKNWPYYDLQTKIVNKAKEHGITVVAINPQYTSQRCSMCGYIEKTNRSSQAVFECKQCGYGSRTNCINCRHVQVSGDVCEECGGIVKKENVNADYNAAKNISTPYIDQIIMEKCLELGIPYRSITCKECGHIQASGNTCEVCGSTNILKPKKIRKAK

T2: Cas-alpha 10 wild type (Cas12f) (Syntrophomonas palmitatica, UniProt P0DW62 SEQ:1-497)
T2 sequence: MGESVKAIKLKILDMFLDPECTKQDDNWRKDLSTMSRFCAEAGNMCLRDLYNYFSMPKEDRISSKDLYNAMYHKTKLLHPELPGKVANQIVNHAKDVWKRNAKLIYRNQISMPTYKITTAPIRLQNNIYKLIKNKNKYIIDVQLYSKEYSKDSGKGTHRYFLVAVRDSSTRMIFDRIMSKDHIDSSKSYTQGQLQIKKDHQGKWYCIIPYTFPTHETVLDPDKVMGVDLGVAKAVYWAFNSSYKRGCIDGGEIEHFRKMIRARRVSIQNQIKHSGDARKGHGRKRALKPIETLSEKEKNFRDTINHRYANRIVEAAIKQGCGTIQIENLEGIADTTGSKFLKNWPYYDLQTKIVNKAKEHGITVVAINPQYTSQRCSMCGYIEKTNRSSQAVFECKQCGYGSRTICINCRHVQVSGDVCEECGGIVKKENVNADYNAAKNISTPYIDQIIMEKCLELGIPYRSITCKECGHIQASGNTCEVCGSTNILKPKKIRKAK

T3: Cas-alpha 10 variant G81E (synthetic construct, UniProt P0DW62 SEQ:1-497)
T3 chain: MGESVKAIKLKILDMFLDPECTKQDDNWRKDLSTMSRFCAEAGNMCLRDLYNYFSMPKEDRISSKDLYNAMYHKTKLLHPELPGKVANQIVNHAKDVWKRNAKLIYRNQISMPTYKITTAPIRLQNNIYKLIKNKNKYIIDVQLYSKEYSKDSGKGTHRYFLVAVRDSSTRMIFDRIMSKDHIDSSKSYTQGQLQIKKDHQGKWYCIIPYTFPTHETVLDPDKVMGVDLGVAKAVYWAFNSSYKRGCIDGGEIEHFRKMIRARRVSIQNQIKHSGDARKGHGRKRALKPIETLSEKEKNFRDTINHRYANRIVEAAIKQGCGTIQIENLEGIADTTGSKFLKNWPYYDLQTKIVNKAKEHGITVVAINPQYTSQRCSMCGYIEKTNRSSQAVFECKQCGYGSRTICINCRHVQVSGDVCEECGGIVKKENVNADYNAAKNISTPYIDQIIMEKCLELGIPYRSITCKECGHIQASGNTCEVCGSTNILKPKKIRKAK

T4: Cas-alpha 10 variant T34E+M45S+G81E+G470D (SEQ ID NO:362) (synthetic construct, UniProt P0DW62 SEQ:1-497, D54F)
T4 sequence: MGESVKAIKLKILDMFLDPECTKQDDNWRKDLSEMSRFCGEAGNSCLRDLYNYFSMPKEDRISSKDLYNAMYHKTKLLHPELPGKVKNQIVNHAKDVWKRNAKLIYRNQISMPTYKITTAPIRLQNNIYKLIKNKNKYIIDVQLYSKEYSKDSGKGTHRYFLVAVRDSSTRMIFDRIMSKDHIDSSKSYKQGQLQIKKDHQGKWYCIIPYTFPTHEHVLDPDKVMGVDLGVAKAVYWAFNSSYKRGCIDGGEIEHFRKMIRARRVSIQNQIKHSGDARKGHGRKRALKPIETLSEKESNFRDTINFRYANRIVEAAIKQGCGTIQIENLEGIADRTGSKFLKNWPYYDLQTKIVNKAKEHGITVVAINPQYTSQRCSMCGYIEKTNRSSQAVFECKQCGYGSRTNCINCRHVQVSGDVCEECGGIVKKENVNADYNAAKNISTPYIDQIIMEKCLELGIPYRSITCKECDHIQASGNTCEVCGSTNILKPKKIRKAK


Experiments:
[1] = biological target: T1, Cas-alpha 10 base variant; assay: cell_activity; PAM GTTC; HEK293T 37 C; settings: tags: SV40 NLS; chain copies: 2
Experimental: (§1) Human cell transformation was carried-out by culturing HEK293T cells (ATCC catalog umber CRL-3216) in Dulbecco's Modified Eagle Medium (DMEM) supplemented with 10% fetal bovine serum (FBS) and penicillin (100 U/ml)/streptomycin (100 μg/ml) at 37° C. in 5% CO₂. Cells were then seeded in 96-well plates at a 1.8×10^4 cells/well density. After approximately one day growth, cells were transfected with plasmids encoding nuclease and U6-guide RNA expression cassettes using FuGENE HD (Promega) per manufacturer's instruction. Briefly, on the day of transfection, 0.450 μg of plasmid DNA ([…] of Cas-alpha nuclease and 0.099 μg of sgRNA expression cassettes) was diluted in a final volume of 20 μl of room temperature Opti-MEM (Gibco), mixed, and 1.35 μl of FuGENE HD was added directly to the solution (not allowing undiluted transfection reagent to contact the sides or bottom of the tube or plate) to achieve a 3:1 ratio of transfection reagent to plasmid DNA. The resulting mixture was then incubated for 10 mins at room temperature, 20 μl added to each HEK293T seeded well, and mixed gently by pipetting or by using a shaker. Transfected cells were then grown at 37° C. with 5% CO₂ for 4 days and GFP expression monitored by fluorescence microscope. Experiments were performed with three to twelve independent replicates and transfections where Cas-alpha 10 endonuclease and/or sgRNA plasmid DNA expression cassettes were omitted served as negative controls.
(§2) For human cells, cells were washed twice with PBS two to four days after transfection and lysed using lysis buffer (50 mM Tris, 150 mM NaCl, 0.2% Tween 20, 0.2 mg/ml Proteinase K). Next, RUNX and WTAP targets were evaluated for the presence of targeted mutations using T7 endonuclease I (Guschin, D. Y. et al. (2010) In: Mackay J., Segal D. (eds) Engineered Zinc Finger Proteins. Methods in Molecular Biology (Methods and Protocols), vol 649. Humana Press, Totowa, NJ) and Illumina deep sequencing as described above.

[2] = biological target: T2, Cas-alpha 10 wild type (Cas12f); assay: cell_activity; PAM GTTC; HEK293T 37 C; settings: tags: SV40 NLS; chain copies: 2
Experimental: as §1, §2

[3] = biological target: T3, Cas-alpha 10 variant G81E; assay: cell_activity; PAM GTTC; maize, 3x4 hr 45 C; settings: tags: SV40 NLS; chain copies: 2
Experimental: The resulting T-DNA was then placed into LBA4404, a thymine auxotrophic strain of Agrobacterium tumefaciens, containing Vir9, a separate plasmid encoding the Bo542 virulence genes (US20170121722A1 and WO 2017/078836). The resulting Agrobacterium strain was then used to transform nine-to-ten-day old immature maize embryos (approximately 2 mm in size) by submersion in 700A liquid media containing the strain at an optical density (OD) of 0.4 to 2.0 at 550 nm for 5 min. and then removed from the media and placed on solid co-cultivation medium overnight at 21° C. in the dark. Following T-DNA delivery, embryos are transferred to resting media, 13266R, and grown in the dark at 28° C. for 5-7 days. Next, coleoptiles were removed, and embryos transferred to selection media for 11-16 days and kept in the dark at 28° C. They were then moved to maturation media and incubated for 14-25 days in the dark at 28° C. and then subject to light for 2-5 days. Next, they were moved to rooting media and incubated at 26-28° C. under light for 14-28 days refreshing media as needed. To examine Cas-alpha nuclease-guide RNA activity, transformed tissue was incubated at 28° C., standard for Agrobacterium transformation, or at a range of temperatures lower or higher than 28° C.
In a third study, the efficiency of targeted mutagenesis of Cas-alpha 10 endonuclease variants, SEQ ID NOs:14, 48, 60, and 157, were compared when tested with two sgRNA recognition domains, SEQ ID NOs:61 and 327, at two target sites, MS26 and D8. Experiments were carried-out in Zea mays using Agrobacterium (Agro) transformation as described in Example 2. Two temperature regimens were performed. The first subjected Agro transformed embryos (once per day) to 45° C. for 4 hrs on days 3, 4, and 5 (3×4 hr 45° C.) after infection and the second to a continuous incubation at 37° C. on days 1-3 (1-3d 37° C.) following infection. For both regimens, embryos were placed at 28° C. before and after temperature treatment. […]

[4] = biological target: T4, Cas-alpha 10 variant …; assay: cell_activity; PAM GTTC; HEK293T 37 C; settings: tags: SV40 NLS, T2A-GFP; chain copies: 2
Experimental: as §1, §2

Binder | activity [1] | activity [2] | activity [3] | activity [4]
sgRNA RUNX (original) ; RUNX target (ssRNA ; dsDNA) RNA: AUUUACUCUGUUUCGCGCGCCAGGGCAGUUAGGUGCCCUAAAAGAGCGAAGUGGCCGAAAGGAAAGGCUAACGCUUCUCUAACGCUACGGCGACCUUGGCGAAAUGCCAUCAAUACCACGCGGCCCGAAAGGGUUCGCGCGAAACUGAGUAAUGAAAGUCGCAUCUUGCGUAAGCGCGUGGAUUGAAACCCUGUCUUGUUUGUGAGAGG DNA 1: GTTCCCTGTCTTGTTTGTGAGAGG DNA 2: CCTCTCACAAACAAGACAGGGAAC | 8.77 % targeted mutagenesis | 5.68 % targeted mutagenesis | – | –
sgRNA MS26 (original) ; MS26 target (ssRNA ; dsDNA) RNA: AUUUACUCUGUUUCGCGCGCCAGGGCAGUUAGGUGCCCUAAAAGAGCGAAGUGGCCGAAAGGAAAGGCUAACGCUUCUCUAACGCUACGGCGACCUUGGCGAAAUGCCAUCAAUACCACGCGGCCCGAAAGGGUUCGCGCGAAACUGAGUAAUGAAAGUCGCAUCUUGCGUAAGCGCGUGGAUUGAAACAAGUUCACGGCGUUCCAGGC DNA 1: GTTCAAGTTCACGGCGTTCCAGGC DNA 2: GCCTGGAACGCCGTGAACTTGAAC | – | – | 6.62 % targeted mutagenesis | –
sgRNA RUNX Design 5_157-159 ; RUNX target (ssRNA ; dsDNA) RNA: GUUUCGCGCGCCAGGGCAGUUAGGUGCCCUAAAAGAGCGAAGUGGCCGAAAGGAAAGGCUAACGCUUCUCUAACGCUACGGCGACCUUGGCGAAAUGCCAUCAAUACCACGCGGCCCGAAAGGGUUCGCGCGAAACGAACGCAUCUUGCGUAAGCGCGUGGAUUGAAACCCUGUCUUGUUUGUGAGAGG DNA 1: GTTCCCTGTCTTGTTTGTGAGAGG DNA 2: CCTCTCACAAACAAGACAGGGAAC | 19.6 % targeted mutagenesis | – | – | 24.2 % targeted mutagenesis
